Measurements taken from patent US7402570.

What was measured:
[1] = biological target: human p53 protein, full length (human) (UniProt P04637); assay: cell-based or functional assay
[2] = biological target: lexA-p53 (p53 codons 1-73) fusion (human); assay: cell-based or functional assay

Sequence of human p53 protein, full length (human) (P04637 whole entry, the tested form may be a part): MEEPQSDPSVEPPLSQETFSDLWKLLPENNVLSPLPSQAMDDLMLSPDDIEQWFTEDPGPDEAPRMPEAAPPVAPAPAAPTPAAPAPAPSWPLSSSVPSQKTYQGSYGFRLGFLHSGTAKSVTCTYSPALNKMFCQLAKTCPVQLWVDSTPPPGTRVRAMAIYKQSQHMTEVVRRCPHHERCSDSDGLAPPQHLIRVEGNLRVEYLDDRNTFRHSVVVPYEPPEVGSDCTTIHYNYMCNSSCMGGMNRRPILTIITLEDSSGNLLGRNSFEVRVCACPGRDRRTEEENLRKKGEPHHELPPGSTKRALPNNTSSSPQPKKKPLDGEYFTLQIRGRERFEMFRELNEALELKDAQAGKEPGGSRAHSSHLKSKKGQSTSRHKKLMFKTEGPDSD

human MDM2 protein (hMDM2), full length
inhibition of p53-mediated transactivation of a p53-responsive β-galactosidase reporter in yeast [1]: 16 fold
decrease in lexA-responsive β-galactosidase reporter activity in yeast [2]: 5 fold
